Values of other authors as cited in publication PMC7427315.
pKd: −log10 of the molar value.

Molecular target: MAG ECD (Mus musculus) (UniProt P20917)

pKd: 3.42
Substance: MAG ECD (from UniProt P20917)
